Source: patent US20220332804A1 (CSL INNOVATION, published 2022)

Assays:
Assay in all cases: SPR, antibody captured, C2 as analyte;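 further: biacore SPR at 37 °C, anti-C2 mAbs captured via goat anti-human IgG on CM5 chips, double-referenced sensorgrams fit to a 1:1 kinetic or steady-state model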
human C2 D282A = target: T1, human C2 D282A (human, UniProt P06681 21-752)
T1 sequence: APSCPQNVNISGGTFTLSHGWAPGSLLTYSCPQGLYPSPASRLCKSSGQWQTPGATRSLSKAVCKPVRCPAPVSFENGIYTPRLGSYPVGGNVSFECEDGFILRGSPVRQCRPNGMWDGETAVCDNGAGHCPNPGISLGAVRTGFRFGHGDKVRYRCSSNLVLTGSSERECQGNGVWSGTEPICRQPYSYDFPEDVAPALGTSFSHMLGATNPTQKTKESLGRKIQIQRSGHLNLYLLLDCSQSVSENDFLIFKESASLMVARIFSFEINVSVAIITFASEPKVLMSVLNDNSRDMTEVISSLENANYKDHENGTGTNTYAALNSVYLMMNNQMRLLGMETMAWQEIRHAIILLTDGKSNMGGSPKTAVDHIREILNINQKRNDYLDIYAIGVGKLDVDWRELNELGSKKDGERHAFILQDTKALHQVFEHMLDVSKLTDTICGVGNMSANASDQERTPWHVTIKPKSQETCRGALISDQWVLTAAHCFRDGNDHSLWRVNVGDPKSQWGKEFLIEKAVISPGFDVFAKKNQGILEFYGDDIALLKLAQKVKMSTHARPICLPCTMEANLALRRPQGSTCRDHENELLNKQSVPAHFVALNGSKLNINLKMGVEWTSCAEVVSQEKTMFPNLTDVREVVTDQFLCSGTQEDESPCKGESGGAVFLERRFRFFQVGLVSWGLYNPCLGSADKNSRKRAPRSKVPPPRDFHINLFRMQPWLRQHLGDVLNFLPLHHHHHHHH

human C2 D441A = target: T2, human C2 D441A (human, UniProt P06681 21-752)
T2 sequence: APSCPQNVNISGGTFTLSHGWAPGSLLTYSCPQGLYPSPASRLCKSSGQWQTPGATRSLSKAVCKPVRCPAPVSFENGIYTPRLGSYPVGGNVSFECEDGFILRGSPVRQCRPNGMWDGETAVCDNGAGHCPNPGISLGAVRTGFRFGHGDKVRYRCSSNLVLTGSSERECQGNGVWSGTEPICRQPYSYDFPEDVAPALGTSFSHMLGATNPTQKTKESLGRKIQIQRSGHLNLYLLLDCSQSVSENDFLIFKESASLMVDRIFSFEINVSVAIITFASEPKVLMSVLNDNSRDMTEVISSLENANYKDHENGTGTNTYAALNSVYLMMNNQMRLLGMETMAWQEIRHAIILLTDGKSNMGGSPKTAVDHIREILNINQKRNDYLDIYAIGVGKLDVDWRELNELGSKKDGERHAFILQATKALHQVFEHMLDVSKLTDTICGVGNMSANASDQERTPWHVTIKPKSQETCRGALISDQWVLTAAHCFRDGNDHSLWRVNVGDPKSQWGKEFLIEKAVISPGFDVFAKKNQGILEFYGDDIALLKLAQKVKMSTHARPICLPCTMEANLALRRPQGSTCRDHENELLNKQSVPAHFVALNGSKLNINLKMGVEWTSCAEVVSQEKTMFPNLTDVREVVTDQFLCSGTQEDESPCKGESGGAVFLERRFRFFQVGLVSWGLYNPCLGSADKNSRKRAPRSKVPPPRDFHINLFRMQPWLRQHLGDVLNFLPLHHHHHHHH

human C2 S473A = target: T3, human C2 S473A (human, UniProt P06681 21-752)
T3 sequence: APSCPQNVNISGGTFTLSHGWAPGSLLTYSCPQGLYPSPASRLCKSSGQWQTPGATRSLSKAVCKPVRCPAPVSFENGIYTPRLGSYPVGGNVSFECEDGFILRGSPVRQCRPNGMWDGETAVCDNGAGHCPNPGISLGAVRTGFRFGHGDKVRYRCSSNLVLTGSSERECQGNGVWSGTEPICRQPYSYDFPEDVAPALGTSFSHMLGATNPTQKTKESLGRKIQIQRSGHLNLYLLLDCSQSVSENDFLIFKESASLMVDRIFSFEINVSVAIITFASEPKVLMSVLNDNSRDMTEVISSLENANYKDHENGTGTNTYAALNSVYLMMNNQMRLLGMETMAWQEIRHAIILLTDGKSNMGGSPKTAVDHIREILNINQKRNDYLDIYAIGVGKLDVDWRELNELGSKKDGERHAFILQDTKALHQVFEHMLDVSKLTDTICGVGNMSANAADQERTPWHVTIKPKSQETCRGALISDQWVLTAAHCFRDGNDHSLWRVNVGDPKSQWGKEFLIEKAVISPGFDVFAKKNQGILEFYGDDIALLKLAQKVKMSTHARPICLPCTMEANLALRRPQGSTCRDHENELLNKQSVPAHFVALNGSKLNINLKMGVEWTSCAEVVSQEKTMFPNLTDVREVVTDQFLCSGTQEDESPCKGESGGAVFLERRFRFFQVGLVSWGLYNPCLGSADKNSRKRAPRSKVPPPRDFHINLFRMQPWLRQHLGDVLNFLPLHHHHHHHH

human C2 E490A = target: T4, human C2 E490A (human, UniProt P06681 21-752)
T4 sequence: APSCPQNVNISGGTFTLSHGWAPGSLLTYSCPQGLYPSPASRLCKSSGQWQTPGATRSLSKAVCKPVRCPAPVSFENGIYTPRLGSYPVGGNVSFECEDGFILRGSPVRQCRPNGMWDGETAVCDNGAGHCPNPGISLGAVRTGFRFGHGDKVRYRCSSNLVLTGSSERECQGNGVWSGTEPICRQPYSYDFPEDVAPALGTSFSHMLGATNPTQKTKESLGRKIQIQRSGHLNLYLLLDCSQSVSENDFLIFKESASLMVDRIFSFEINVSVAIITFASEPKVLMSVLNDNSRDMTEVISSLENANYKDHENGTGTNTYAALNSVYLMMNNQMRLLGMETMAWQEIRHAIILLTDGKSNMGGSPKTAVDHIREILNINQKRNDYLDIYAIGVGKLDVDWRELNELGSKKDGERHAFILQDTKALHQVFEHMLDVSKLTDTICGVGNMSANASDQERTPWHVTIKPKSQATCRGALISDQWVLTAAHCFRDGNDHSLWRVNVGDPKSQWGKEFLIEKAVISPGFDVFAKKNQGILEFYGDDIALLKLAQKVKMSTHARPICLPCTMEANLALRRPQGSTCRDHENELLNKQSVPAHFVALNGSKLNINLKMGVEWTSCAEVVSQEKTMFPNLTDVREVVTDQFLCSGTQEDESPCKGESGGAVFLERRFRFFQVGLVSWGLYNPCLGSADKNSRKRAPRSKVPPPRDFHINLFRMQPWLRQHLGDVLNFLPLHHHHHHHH

B1: RF16-226 (antibody, human IgG4 S228P, lambda)
heavy: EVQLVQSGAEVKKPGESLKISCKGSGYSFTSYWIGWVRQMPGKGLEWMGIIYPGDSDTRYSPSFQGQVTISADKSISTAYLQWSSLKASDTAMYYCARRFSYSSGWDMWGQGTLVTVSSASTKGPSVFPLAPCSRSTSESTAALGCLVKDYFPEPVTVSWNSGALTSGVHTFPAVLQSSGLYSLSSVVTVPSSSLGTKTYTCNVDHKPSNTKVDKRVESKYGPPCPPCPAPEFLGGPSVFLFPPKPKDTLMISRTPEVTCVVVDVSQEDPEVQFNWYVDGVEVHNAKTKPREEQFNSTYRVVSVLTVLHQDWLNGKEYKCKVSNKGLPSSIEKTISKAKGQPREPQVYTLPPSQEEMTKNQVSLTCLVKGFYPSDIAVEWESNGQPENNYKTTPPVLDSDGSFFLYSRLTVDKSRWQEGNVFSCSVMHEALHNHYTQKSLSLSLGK
light: SYELTQPPSVSVSPGQTARITCSGDALTSKYVAWYQQKSGLAPLLVIYEDTRRPSGIPAKFSGSSSGSVATLTISGAHGDDEADYYCYSTDASGHQRVFGGGTKLTVLSQPKAAPSVTLFPPSSEELQANKATLVCLISDFYPGAVTVAWKADGSPVKAGVETTKPSKQSNNKYAASSYLSLTPEQWKSHRSYSCQVTHEGSTVEKTVAPTECS
notes: pH-dependent anti-C2 antibody from a phage display library; also called WT
Work on B1 yielded a Kd (human C2 D282A) of 8.9 nM, a Kd (human C2 D441A) of 63.9 nM and a Kd (human C2 S473A) of 14.2 nM. The Kd (human C2 E490A) was 15.6 nM.
